Reference: article PMC12264150, “A chromatin-remodeling-independent role for ATRX in protecting centromeric cohesion” (The EMBO Journal, 2025)

T1: GST-Pds5B (1–300) (UniProt Q9NTI5 1-300)
T1 construct: Pds5B residues 1–300, in pGEX-4T1; also called GST-fused Pds5B (1–300) fragment; GST-Pds5B (1–300) WT; source: E. coli BL21 (DE3), purified (Glutathione Sepharose 4B); not shown: GST, N-terminal, kept
T1 sequence (looked up): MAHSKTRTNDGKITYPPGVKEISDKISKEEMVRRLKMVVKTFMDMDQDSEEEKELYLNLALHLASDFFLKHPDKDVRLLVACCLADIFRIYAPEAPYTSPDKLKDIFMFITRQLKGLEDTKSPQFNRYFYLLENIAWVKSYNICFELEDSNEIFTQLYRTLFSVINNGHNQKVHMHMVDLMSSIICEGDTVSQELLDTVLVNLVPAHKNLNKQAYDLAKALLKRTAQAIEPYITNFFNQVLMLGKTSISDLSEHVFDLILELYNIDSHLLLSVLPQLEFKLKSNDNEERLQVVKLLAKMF

T2: MBP-Pds5B (1–300) (UniProt Q9NTI5 1-300)
T2 construct: Pds5B residues 1–300, in pMAL-C2E; also called recombinant MBP-Pds5B (1–300); purified MBP-Pds5B; source: E. coli BL21 (DE3), purified (Amylose Resin); not shown: MBP, N-terminal, kept
T2 sequence (looked up): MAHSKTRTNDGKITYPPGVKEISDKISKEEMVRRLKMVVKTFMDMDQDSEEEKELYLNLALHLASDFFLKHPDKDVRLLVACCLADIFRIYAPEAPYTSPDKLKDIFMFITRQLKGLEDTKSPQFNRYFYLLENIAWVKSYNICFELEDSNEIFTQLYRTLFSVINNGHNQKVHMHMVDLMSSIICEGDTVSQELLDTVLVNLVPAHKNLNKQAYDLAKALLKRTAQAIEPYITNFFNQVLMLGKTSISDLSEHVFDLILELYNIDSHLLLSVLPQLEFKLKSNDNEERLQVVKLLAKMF

B1: GFP-ATRX (1394–1443)-2xStrep (domain or fragment, UniProt P46100 1394-1443, looked up)
chain: SESEDEQRPRTRSAKKAELEENQRSYKQKKKRRRIKVQEDSSSENKSNSE
notes: source: E. coli BL21 (DE3), purified (Strep-Tactin Superflow); not shown: GFP, N-terminal, kept; 2xStrep, C-terminal, kept
B2: GFP-ATRX (1394–1443)-2xStrep E1413A (domain or fragment, UniProt P46100 1394-1443, looked up)
chain: SESEDEQRPRTRSAKKAELAENQRSYKQKKKRRRIKVQEDSSSENKSNSE
notes: as for B1
B3: GFP-ATRX (1394–1443)-2xStrep E1414A (domain or fragment, UniProt P46100 1394-1443, looked up)
chain: SESEDEQRPRTRSAKKAELEANQRSYKQKKKRRRIKVQEDSSSENKSNSE
notes: as for B1
B4: GFP-ATRX (1394–1443)-2xStrep K1420A (domain or fragment, UniProt P46100 1394-1443, looked up)
chain: SESEDEQRPRTRSAKKAELEENQRSYAQKKKRRRIKVQEDSSSENKSNSE
notes: as for B1
B5: GFP-ATRX (1394–1443)-2xStrep N1415A (domain or fragment, UniProt P46100 1394-1443, looked up)
chain: SESEDEQRPRTRSAKKAELEEAQRSYKQKKKRRRIKVQEDSSSENKSNSE
notes: as for B1
B6: GFP-ATRX (1394–1443)-2xStrep Q1416A (domain or fragment, UniProt P46100 1394-1443, looked up)
chain: SESEDEQRPRTRSAKKAELEENARSYKQKKKRRRIKVQEDSSSENKSNSE
notes: as for B1
B7: GFP-ATRX (1394–1443)-2xStrep Q1421A (domain or fragment, UniProt P46100 1394-1443, looked up)
chain: SESEDEQRPRTRSAKKAELEENQRSYKAKKKRRRIKVQEDSSSENKSNSE
notes: as for B1
B8: GFP-ATRX (1394–1443)-2xStrep R1417A (domain or fragment, UniProt P46100 1394-1443, looked up)
chain: SESEDEQRPRTRSAKKAELEENQASYKQKKKRRRIKVQEDSSSENKSNSE
notes: as for B1
B9: GFP-ATRX (1394–1443)-2xStrep S1418A (domain or fragment, UniProt P46100 1394-1443, looked up)
chain: SESEDEQRPRTRSAKKAELEENQRAYKQKKKRRRIKVQEDSSSENKSNSE
notes: as for B1
B10: Wapl (1–28)-GST (domain or fragment, UniProt Q7Z5K2 1-28, looked up)
chain: MTSRFGKTYSRKGGNGSSKFDEVFSNKR
notes: Wapl residues 1–28, in pETGEX-CT; also called short Wapl fragment (residues 1–28) containing the YSR motif; Wapl (1–28)-GST WT; source: E. coli BL21 (DE3), purified (Glutathione Sepharose 4B); not shown: GST, C-terminal, kept

These binders were tested against T1, GST-Pds5B (1–300) (assay: pull-down; recombinant GFP-ATRX (1394–1443)-2xStrep (wild-type or mutants) pulled down with GST or GST-Pds5B (1–300); immunoblot for GFP and CBB). Conditions: both partners purified.
B1: binds. B2: binds. B3: binds. B4: binds. B5: binds. B6: binds. B7: binds. B8: binds. B9: binds.

Each binder was assayed against T2, MBP-Pds5B (1–300) (assay: pull-down; competitive: purified MBP-Pds5B (1–300) mixed with GFP-2xStrep or increasing amounts of GFP-ATRX (1394–1443)-2xStrep (WT or Y1419A), pulled down with Wapl (1–28)-GST). Conditions: both partners purified.
B1: binds. B10: binds.
